Data on one molecule can be found in US20200239573A1 (CRESCENDO BIOLOGICS, published 2020).

The target in test [1] is T1, human PD-1 expressed on cells (CHO human PD-1 cells) (human, UniProt Q15116 21-288). As to the kind of experiment: cell-based or functional assay.
Test [2] concerns the target T1, human PD-1 expressed on cells (CHO …). Briefly: FMAT 1.57 epitope competition on CHO human PD-1 cells; competitor 1.57-Strep; sample kept 7 days in mouse serum. The procedure: (§1) For the epitope competition assay reagents were prepared in FMAT assay buffer. […] Plates were incubated for a minimum of 1.5 hours at room temperature then fluorescence measured in the FL2 (502 nm-537 nm) and FL5 (677-800 nm) channels on the Mirrorball plate reader (TTP) following excitation at 488 nm and 640 nm. Data was expressed as a % of the total binding control (i.e. % control) after subtraction of the background signal determined from the non-specific binding control wells.
(§2) Serum stability of VH and multivalent VH constructs was assessed by measurement of their activity following incubation for 0, 1, 4 or 7 days in mouse serum (Sigma M5905).

The target is the same in test [3]. As to the kind of experiment: FMAT inhibition; 100 pM PD-L1-Fc on CHO human PD-1 cells. The procedure:
All reagents and serially diluted VH were prepared in FMAT assay buffer. […] Plates were incubated for 2 hours at room temperature then fluorescence measured in the FL2 (502 nm-537 nm) and FL5 (677-800 nm) channels on the Mirrorball plate reader (TTP) following excitation at 488 nm and 640 nm. Data was expressed as a % of the total binding control (i.e. % control) after subtraction of the background signal determined from the non-specific binding control wells.

Test [4] shares this target. Briefly: FMAT 1.57 epitope competition on CHO human PD-1 cells; competitor 1.57-Strep; sample kept 7 days in human serum.
The target of test [5] is human PD-1 on primary human CD4+ T cells (human, UniProt Q15116 21-288). As to the kind of experiment: flow cytometry, PHA-stimulated human CD4+ T cells, donor 3. The procedure:
Binding of monovalent single domain antibodies and multivalent binding agents to T cells was measured using flow cytometry. […] T-cells were stimulated with 2.5 μg/ml PHA for 2-4 days in RPMI media supplemented with 10% FBS, 2 mM Glutamine, 1× Pen/Strep. Cells were transferred into 96 well plates (75000 per well), blocked for 10 mins with PBS/1% BSA, then incubated with serially diluted VH in staining buffer (PBS/1% BSA) for 1 hour at 4° C. Cells were washed with staining buffer by centrifugation then incubated with 10 μg/ml biotinylated Anti His antibody for 40 mins at 4° C. Cells were washed again then stained with Streptavidin Alexa Fluor-488 (10 μg/ml) and 1:5000 diluted Live Dead near IR stain (Molecular Probes cat no. L10119) for 30 mins at 4° C. After further washing cells were fixed and fluorescence measured by flow cytometry.

The target of test [6] is T1, human PD-1 expressed on cells (CHO …). Briefly: FMAT 1.57 epitope competition on CHO human PD-1 cells; competitor 1.57-Strep; sample kept 1 day in human serum.
Test [7] has the same target. Briefly: FMAT 1.57 epitope competition on CHO human PD-1 cells; competitor 1.57-Strep; sample kept 0 days in mouse serum. The procedure:
as §1, §2

For test [8] the target is unchanged. Briefly: FMAT 1.57 epitope competition on CHO human PD-1 cells; competitor 1.57-Strep; sample kept 0 days in human serum; Day 0, Human column.
Test [9] concerns the target T2, recombinant human PD-1 Fc chimera (human, UniProt Q15116 25-167).
T2 construct: Bought protein; also called human PD-1-huFc; huPD-1-Fc; not shown: human Fc
Briefly: SPR Biacore T200, PD-1-huFc amine-coupled, single cycle kinetics. (In SPR one partner is held on a chip, and binding of the other changes the refractive index at the surface.)

In test [10] the target is T2, recombinant human PD-1 Fc chimera. Briefly: HTRF binding, 2 nM PD-1, anti-Fc cryptate and anti-His-D2. The procedure:
(§3) e) Species Cross Reactivity Testing Purified […] were tested for their ability to bind to human PD-1 (R&D Systems cat no. 1086-PD), cynomolgus PD-1 (Acro Biosystems cat no. PD-1-05254) and mouse PD-1 (R&D Systems cat no. 1021-PD) in an HTRF Binding assay format. All reagents and serially diluted VH were prepared in assay buffer containing PBS, 0.1% BSA and 0.4M Potassium Fluoride. Samples or assay buffer (non-specific binding) were incubated with 2 nM human/cynomolgus or mouse PD-1, 1 nM Anti human-Fc Cryptate PAb (Cisbio cat. no. 61HFCKLB) and 30 nM anti His-D2 (CisBio cat no 61HISDLA) in black 384-shallow well assay plates for a minimum of 3 hours at room temperature. Time-resolved fluorescent emission at 620 nm and 665 nm was measured following excitation at 337 nm on the BMG PHERAstar plate reader. The HTRF ratio were calculated ((665 nm emission/620 nm emission)*10000) and the data corrected for (non-specific binding) to give the specific binding signal.
In general terms: TR-FRET usually uses a lanthanide donor and a delayed reading to cut background.

In test [11] the target is T3, cynomolgus PD-1 recombinant protein (cynomolgus, UniProt B0LAJ3 25-170).
T3 construct: Detected with anti human-Fc cryptate, so probably Fc tagged; also called cyno PD-1; cynomolgus PD-1 (Acro Biosystems cat no. PD-1-05254); not shown: The vendor's carrier tag; It is probably a human Fc, since detection used anti human-Fc cryptate
The test is described as above. The procedure:
as §3

What is called IC50 is the concentration that inhibits the measured activity by half. Low values mean higher potency, high ones lower potency. What is called EC50 is the concentration giving half of the maximal effect. Usually Kd stands for a measure of binding affinity in units of concentration. As a reminder, the koff is the first-order rate constant of dissociation. As a reminder, the kon is a measure of how fast the partners come together.

T2 sequence (Q15116 25-167 limits assumed, change not shown): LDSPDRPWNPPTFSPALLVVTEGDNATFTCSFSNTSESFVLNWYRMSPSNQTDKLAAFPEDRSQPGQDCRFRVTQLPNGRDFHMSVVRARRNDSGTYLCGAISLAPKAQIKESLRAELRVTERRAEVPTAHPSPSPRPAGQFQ
T1 sequence (Q15116 21-288): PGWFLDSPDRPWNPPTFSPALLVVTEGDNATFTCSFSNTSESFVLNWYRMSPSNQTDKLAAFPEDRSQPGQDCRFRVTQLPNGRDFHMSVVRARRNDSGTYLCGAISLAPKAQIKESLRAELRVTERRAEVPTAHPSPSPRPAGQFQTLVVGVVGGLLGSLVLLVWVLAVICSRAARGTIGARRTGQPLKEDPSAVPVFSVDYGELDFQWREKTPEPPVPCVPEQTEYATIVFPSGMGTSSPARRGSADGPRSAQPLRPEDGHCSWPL
T3 sequence (B0LAJ3 entry or part of it limits assumed): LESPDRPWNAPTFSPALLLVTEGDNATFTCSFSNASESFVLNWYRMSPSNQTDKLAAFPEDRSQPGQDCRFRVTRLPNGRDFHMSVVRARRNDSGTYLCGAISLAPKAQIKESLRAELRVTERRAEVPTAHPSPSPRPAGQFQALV
Sequence of human PD-1 on primary human CD4+ T cells (Q15116 21-288): as the sequence (Q15116 21-288) above

B1: Humabody® 1.92 (VHH)
VHH: EVQLVESGGGLVKPGGSLRLSCAASGFTFSDESMTWMRQAPGKGLEWVSYISSGGGVKFYADSVKGRFTISRDNAKNSLYLQMNSLRAEDTAVYYCAREAPLRLGESPHDAFDISGQGTMVTVSS
notes: human VH single domain antibody
Regarding B1, the “Reporter Assay EC50” value in [1] is 13 nM. Besides, the IC50 in [2] is 5.2 nM; in [3] it was 2.8 nM; in test [4] it was 5.4 nM; in [6], 4.9 nM; in [7], 4.4 nM; in [8], 5.7 nM. In addition, the EC50 is 1.2 nM in test [5], 2.6 nM in test [10] and 4.1 nM in test [11]. The dissociation constant Kd in [9] turned out to be 0.059 nM. In addition, the koff in test [9] worked out at 3.67e-05 s⁻¹. Moreover, in [9], the association rate constant (kon) is 620000 M⁻¹ s⁻¹.
